{
  "source": "patent US10918730B2",
  "about": "“Pegylated bioactive peptides and uses thereof” (GRIFFON PHARMACEUTICALS INC., priority 2016, dated 2021)",
  "key": {"human GHRH receptor": {"target": "T1, human GHRH receptor (Homo sapiens, UniProt Q02643)", "T1 sequence (Q02643 23-423)": "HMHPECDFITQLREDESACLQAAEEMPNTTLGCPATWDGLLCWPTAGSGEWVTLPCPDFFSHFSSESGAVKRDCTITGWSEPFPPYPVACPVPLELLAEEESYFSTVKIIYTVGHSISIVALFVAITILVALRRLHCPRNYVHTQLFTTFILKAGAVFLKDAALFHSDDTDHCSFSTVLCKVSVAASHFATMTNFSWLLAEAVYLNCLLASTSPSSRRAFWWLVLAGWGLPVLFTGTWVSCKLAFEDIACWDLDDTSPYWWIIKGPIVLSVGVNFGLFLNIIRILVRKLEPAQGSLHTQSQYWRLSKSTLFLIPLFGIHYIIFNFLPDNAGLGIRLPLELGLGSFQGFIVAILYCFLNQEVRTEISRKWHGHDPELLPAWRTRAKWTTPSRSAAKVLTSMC", "assay": "Hit Hunter (DiscoveRx) cAMP agonist assay in cells expressing GHRH receptor", "format": "cell-based", "settings": "for in vitro biological activity in words: longer PEG chains at the 9th position; for potency in words: Table 2 experiment, compared to native peptide", "method": "For agonist determination, cells were incubated with sample to induce response. Media was aspirated from cells and replaced with 15 μL 2:1 HBSS/10 mM Hepes:cAMP XS+ Ab reagent. […] Vehicle concentration was 1%. […] Microplates were read following signal generation with a PerkinElmer Envision™ instrument for chemiluminescent signal detection. Compound activity was analyzed using CBIS data analysis suite (ChemInnovation, CA)."}, "Growth Hormone secretion": {"system": "Growth Hormone secretion", "assay": "GH release kinetics after subcutaneous injection in Sprague-Dawley rats", "format": "in vivo", "settings": "female rats, single subcutaneous dose 0.04 mg/kg, FIG. 1; for GH AUC (0-90 min): plasma GH by ELISA", "excerpt": "Protocol: Sprague-Dawley rats (female, weighing from 250 to 300 g) were obtained from Charles River Inc. Animals were used according to a protocol of the Animal Care Committee along with the principles of the Guide for the Care and Use of Experimental Animals of the Canadian Council on Animal Care. The animals were maintained on standard laboratory chow under a 12:12 light:dark cycle. They were kept in groups of 4 rats per cage. The animals were anesthetized with isoflurane 2.5%. A mid-section opening was made in the neck to expose the carotid artery. The carotid artery was canulated with polypropylene tubing (PE-50) to allow blood withdrawal. After surgical preparation, rats received a subcutaneous injection of GHRH analog (10-100 μg/kg) dissolved in 20 mM AcONa+5% mannitol at pH 5). Blood samples (400 μL/time point) were collected from 2-4 animals per group. […] Blood was collected into microtainer tubes containing K3EDTA, mixed and immediately centrifuged at 13,000 RPM in a desktop centrifuge for 2 minutes. The plasma was collected and placed into a screw cap Eppendorf™ tube and quickly frozen in liquid nitrogen. The samples were then kept at −80° C. until assayed. Determination of GH levels was performed as described below.\nDetermination of GH levels in plasma samples: Rat and mouse plasma samples were vortexed carefully and centrifuged at 9,000 RPM for 2 min at 4° C. […] The remainder of the procedure was performed according to the manufacturers instructions, and the data obtained were analyzed using GraphPad Prism™ software. […] Growth hormone levels were determined in timed-aliquots of blood and are depicted in FIG. 1. […]\nThe N-terminal part of the GHRH peptide is known to be buried in the extracellular loops and transmembrane domains of the GHRH receptor, and thus almost all of the amino acids in the N-terminal domain participate in high affinity binding of the GHRH peptide to the receptor. […] Briefly, peptides (0.04 mg/kg) were subcutaneously injected in female rats and growth hormone levels were determined in timed aliquots of blood drawn from the animals."}},
  "note": "Non-standard residues stand in square brackets, D forms with d. No end group written: not given here. hArg = N=C(N)NCCCC[C@H](N)C(=O)O; Orn = NCCC[C@H](N)C(=O)O",
  "data": [
    {"compound": "CC[C@H](C)[C@H](NC(=O)[C@H](C)NC(=O)[C@H](CC(=O)O)NC(=O)[C@H](C)NC(=O)[C@@H](N)Cc1ccc(O)cc1)C(=O)N[C@@H](Cc1ccccc1)C(=O)N[C@H](C(=O)N[C@@H](CC(N)=O)C(=O)N[C@@H](CO)C(=O)N[C@@H](Cc1ccc(O)cc1)C(=O)N[C@@H](CCCNC(=N)N)C(=O)N[C@@H](CCCCN)C(=O)N[C@H](C(=O)N[C@@H](CC(C)C)C(=O)NCC(=O)N[C@@H](CCC(N)=O)C(=O)N[C@@H](CC(C)C)C(=O)N[C@@H](CO)C(=O)N[C@@H](C)C(=O)N[C@@H](CCCNC(=N)N)C(=O)N[C@@H](CCCCN)C(=O)N[C@@H](CC(C)C)C(=O)N[C@@H](CC(C)C)C(=O)N[C@@H](CCC(N)=O)C(=O)N[C@@H](CC(=O)O)C(=O)N[C@H](C(=O)N[C@@H](CCSC)C(=O)N[C@@H](CO)C(=O)N[C@@H](CCCNC(=N)N)C(N)=O)[C@@H](C)CC)C(C)C)[C@@H](C)O", "note": "[GHRH1-29, reference compound]", "values": [
      {"measurement": "Max. response(%) (compared to baseline)", "setting": "human GHRH receptor; Table 3, independent experiment", "value": 112.97, "unit": "%"}
    ]},
    {"compound": "YaDAIFTAC(Peg-2K)YROVLAQLSAROALQDILS(Har)-NH2 (Y[dA]DAIFTAC(PEG 2 kDa)YR[Orn]VLAQLSAR[Orn]ALQDILS[hArg]-NH2) [Analog 10 (C9), Cys9 conjugated to about 2 kDa PEG, Har29]", "values": [
      {"measurement": "fold more potent than the 5K and 40K Pegylated GHRH peptides (analogs 15 and 16)", "setting": "human GHRH receptor; Table 3 experiment", "value": "2-6 fold"},
      {"measurement": "fold more potent than the native peptide", "setting": "human GHRH receptor; Table 3 experiment", "value": "~14", "unit": "fold"}
    ]},
    {"compound": "YaDAIFTAC(Peg-2K)YROVLAQLSAROALQDILSKN-NH2 (Y[dA]DAIFTAC(PEG 2 kDa)YR[Orn]VLAQLSAR[Orn]ALQDILSKN-NH2) [Analog 6 (C9), Cys9 conjugated to about 2 kDa PEG]", "values": [
      {"measurement": "GH AUC (0-90 min)", "setting": "Growth Hormone secretion", "value": 29075, "unit": "ng/ml/90 min"}
    ]},
    {"compound": "YaDAIFTAC(Peg-5K)YROVLAQLSAROALQDILS(Har)-NH2 (Y[dA]DAIFTACYR[Orn]VLAQLSAR[Orn]ALQDILS[hArg]-NH2; not fully specified (residue 9); printed as YaDAIFTAC(Peg-5K)YROVLAQLSAROALQDILS(Har)-NH2) [Analog 15 (C9), Cys9 conjugated to 5K PEG, Har29]", "values": [
      {"measurement": "in vitro biological activity in words", "setting": "human GHRH receptor; Table 3 experiment", "value": "without loss of in vitro biological activity"}
    ]},
    {"compound": "YaDAIFTAC(Peg-40K)YROVLAQLSAROALQDILS(Har)-NH2 (Y[dA]DAIFTAC(PEG 40 kDa)YR[Orn]VLAQLSAR[Orn]ALQDILS[hArg]-NH2) [Analog 16 (C9), Cys9 conjugated to about 40 kDa PEG, Har29]", "values": [
      {"measurement": "in vitro biological activity in words", "setting": "human GHRH receptor; Table 3 experiment", "value": "without loss of in vitro biological activity"}
    ]},
    {"compound": "YaDAIFTASYROVLAC(Peg-2K)LSAROALQDILSKN-NH2 (Y[dA]DAIFTASYR[Orn]VLAC(PEG 2 kDa)LSAR[Orn]ALQDILSKN-NH2) [Analog 9 (C16), Cys16 conjugated to about 2 kDa PEG]", "values": [
      {"measurement": "potency in words", "setting": "human GHRH receptor", "value": "reduced potency"}
    ]},
    {"compound": "YaDAIFTASYROVLAQLSAROALQDC(Peg-2K)LSKN-NH2 (Y[dA]DAIFTASYR[Orn]VLAQLSAR[Orn]ALQDC(PEG 2 kDa)LSKN-NH2) [Analog 8 (C26), Cys26 conjugated to about 2 kDa PEG]", "values": [
      {"measurement": "potency in words", "setting": "human GHRH receptor", "value": "reduced potency"}
    ]},
    {"compound": "YaDAIFTASYROVLAQLSAROALQDILC(Peg-2K)KN-NH2 (Y[dA]DAIFTASYR[Orn]VLAQLSAR[Orn]ALQDILC(PEG 2 kDa)KN-NH2) [Analog 1 (C28), GHRH analog with Cys28 conjugated to about 2 kDa PEG]", "values": [
      {"measurement": "stimulation of GH secretion in words", "setting": "Growth Hormone secretion", "value": "potently stimulated GH secretion"}
    ]},
    {"compound": "YaDAIFTASYROVLAQLSC(Peg-2K)ROALQDILSKN-NH2 (Y[dA]DAIFTASYR[Orn]VLAQLSC(PEG 2 kDa)R[Orn]ALQDILSKN-NH2) [Analog 4 (C19), Cys19 conjugated to about 2 kDa PEG]", "values": [
      {"measurement": "potency in words", "setting": "human GHRH receptor", "value": "reduced potency"}
    ]},
    {"compound": "YaDAIFTASYROVLC(Peg-2K)QLSAROALQDILSKN-NH2 (Y[dA]DAIFTASYR[Orn]VLC(PEG 2 kDa)QLSAR[Orn]ALQDILSKN-NH2) [Analog 5 (C15), Cys15 conjugated to about 2 kDa PEG]", "values": [
      {"measurement": "potency in words", "setting": "human GHRH receptor", "value": "reduced potency"}
    ]},
    {"compound": "YaDAIFTC(Peg-2K)SYROVLAQLSAROALQDILSKN-NH2 (Y[dA]DAIFTC(PEG 2 kDa)SYR[Orn]VLAQLSAR[Orn]ALQDILSKN-NH2) [Analog 7 (C8), Cys8 conjugated to about 2 kDa PEG]", "values": [
      {"measurement": "GH AUC (0-90 min)", "setting": "Growth Hormone secretion", "value": 15657, "unit": "ng/ml/90 min"},
      {"measurement": "potency in words", "setting": "human GHRH receptor", "value": "reduced potency"}
    ]}
  ]
}
